B1: Antibody 2-14 (antibody, human IgG1, kappa)
light: ACPGKGLPSCGGGSSGGSGVPLSLYSGGEIVLTQSPDFQSVTPKEKVTITCSANSALSYMYWYQQKPDQSPKLWVHGTSNLASGVPSRFSGSGSGTDFTLTINSLEAEDAATYYCHHWSNTQWTFGGGTKVEIKRTVAAPSVFIFPPSDEQLKSGTASVVCLLNNFYPREAKVQWKVDNALQSGNSQESVTEQDSKDSTYSLSSTLTLSKADYEKHKVYACEVTHQGLSSPVTKSFNRGEC
heavy: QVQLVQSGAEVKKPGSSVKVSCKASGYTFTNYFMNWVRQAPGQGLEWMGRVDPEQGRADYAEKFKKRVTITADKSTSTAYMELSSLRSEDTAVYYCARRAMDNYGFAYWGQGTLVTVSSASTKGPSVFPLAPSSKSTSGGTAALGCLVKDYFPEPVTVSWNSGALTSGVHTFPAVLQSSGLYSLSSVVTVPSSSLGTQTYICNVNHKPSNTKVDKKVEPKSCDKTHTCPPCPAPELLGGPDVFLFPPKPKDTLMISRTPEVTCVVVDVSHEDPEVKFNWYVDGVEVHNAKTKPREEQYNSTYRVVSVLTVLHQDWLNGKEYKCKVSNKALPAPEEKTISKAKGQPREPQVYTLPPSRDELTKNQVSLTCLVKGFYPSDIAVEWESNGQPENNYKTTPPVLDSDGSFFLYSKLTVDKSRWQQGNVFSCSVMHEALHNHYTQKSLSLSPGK
B2: Antibody 2-15 (antibody, human IgG1, kappa)
light: B1 light with V20G, P21S, L22G, S23G, L24S, Y25G
heavy: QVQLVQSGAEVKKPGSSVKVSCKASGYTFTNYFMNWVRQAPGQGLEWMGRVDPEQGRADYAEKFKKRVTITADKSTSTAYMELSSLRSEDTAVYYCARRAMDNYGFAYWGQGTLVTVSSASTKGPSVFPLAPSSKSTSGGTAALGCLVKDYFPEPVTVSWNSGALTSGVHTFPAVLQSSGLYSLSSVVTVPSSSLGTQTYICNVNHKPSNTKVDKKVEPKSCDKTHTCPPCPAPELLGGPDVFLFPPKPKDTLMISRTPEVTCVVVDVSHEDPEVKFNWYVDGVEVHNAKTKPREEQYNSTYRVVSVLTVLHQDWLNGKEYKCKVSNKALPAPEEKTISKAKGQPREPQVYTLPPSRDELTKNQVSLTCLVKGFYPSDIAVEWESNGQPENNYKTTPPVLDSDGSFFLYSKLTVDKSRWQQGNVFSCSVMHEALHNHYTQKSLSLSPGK
B3: Antibody 2-16 (colon tumor) (antibody)
heavy chain: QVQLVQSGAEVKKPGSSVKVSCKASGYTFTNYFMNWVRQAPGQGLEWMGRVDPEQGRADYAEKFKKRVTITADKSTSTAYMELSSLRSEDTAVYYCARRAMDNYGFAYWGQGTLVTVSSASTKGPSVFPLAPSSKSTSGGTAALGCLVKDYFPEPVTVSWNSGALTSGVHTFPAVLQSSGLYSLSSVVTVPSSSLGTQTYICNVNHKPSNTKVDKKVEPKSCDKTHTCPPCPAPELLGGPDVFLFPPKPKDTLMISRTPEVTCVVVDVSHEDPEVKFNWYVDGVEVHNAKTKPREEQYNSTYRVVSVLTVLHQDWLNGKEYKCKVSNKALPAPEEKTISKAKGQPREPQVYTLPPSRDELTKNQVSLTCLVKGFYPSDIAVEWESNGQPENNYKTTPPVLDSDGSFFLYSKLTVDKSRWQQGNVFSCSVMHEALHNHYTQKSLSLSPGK
light chain with masking components, cleaved: SGGEIVLTQSPDFQSVTPKEKVTITCSANSALSYMYWYQQKPDQSPKLWVHGTSNLASGVPSRFSGSGSGTDFTLTINSLEAEDAATYYCHHWSNTQWTFGGGTKVEIKRTVAAPSVFIFPPSDEQLKSGTASVVCLLNNFYPREAKVQWKVDNALQSGNSQESVTEQDSKDSTYSLSSTLTLSKADYEKHKVYACEVTHQGLSSPVTKSFNRGEC
notes: also called Antibody 2-16 after culture in colon tumor conditioned media (colon2 4 sept colon tumor sample)
B4: parental anti-CTLA4 antibody (9D9), murine IgG2a (antibody)
light: DIVMTQTTLSLPVSLGDQASISCRSSQSIVHSNGNTYLEWYLQKPGQSPKLLIYKVSNRFSGVPDRFSGSGSGTDFTLKISRVEAEDLGVYYCFQGSHVPYTFGGGTKLEIKRADAAPTVSIFPPSSEQLTSGGASVVCFLNNFYPKDINVKWKIDGSERQNGVLNSWTDQDSKDSTYSMSSTLTLTKDEYERHNSYTCEATHKTSTSPIVKSFNRNEC
heavy: EAKLQESGPVLVKPGASVKMSCKASGYTFTDYYMNWVKQSHGKSLEWIGVINPYNGDTSYNQKFKGKATLTVDKSSSTAYMELNSLTSEDSAVYYCARYYGSWFAYWGQGTLITVSSAKTTAPSVYPLAPVCGDTTGSSVTLGCLVKGYFPEPVTLTWNSGSLSSGVHTFPAVLQSDLYTLSSSVTVTSSTWPSQSITCNVAHPASSTKVDKKIEPRGPTIKPCPPCKCPAPNLLGGPSVFIFPPKIKDVLMISLSPIVTCVVVDVSEDDPDVQISWFVNNVEVHTAQTQTHREDYNSTLRVVSALPIQHQDWMSGKEFKCKVNNKDLPAPIERTISKPKGSVRAPQVYVLPPPEEEMTKKQVTLTCMVTDFMPEDIYVEWTNNGKTELNYKNTEPVLDSDGSYFMYSKLRVEKKNWVERNSYSCSVVHEGLHNHHTTKSFSRTPGK
notes: Made at ATUM by HEK293 transient expression as murine IgG2a; reactive against murine CTLA4; also called 9D9.IgG2a; 9D9 IgG2a
B5: activatable masked anti-CTLA4 antibody (masked 9D9) (antibody, mouse IgG2a, kappa)
light: ACNLIVEGHCGGSVPLSLYSGGGDIVMTQTTLSLPVSLGDQASISCRSSQSIVHSNGNTYLEWYLQKPGQSPKLLIYKVSNRFSGVPDRFSGSGSGTDFTLKISRVEAEDLGVYYCFQGSHVPYTFGGGTKLEIKRADAAPTVSIFPPSSEQLTSGGASVVCFLNNFYPKDINVKWKIDGSERQNGVLNSWTDQDSKDSTYSMSSTLTLTKDEYERHNSYTCEATHKTSTSPIVKSFNRNEC
heavy: B4 heavy
notes: Murine IgG2a; also called masked anti-CTLA4 antibody 2
B6: Antibody 2-6 (antibody, human IgG1, kappa)
light: EIVLTQSPDFQSVTPKEKVTITCSANSALSYMYWYQQKPDQSPKLWVHGTSNLASGVPSRFSGSGSGTDFTLTINSLEAEDAATYYCHHWSNTQWTFGGGTKVEIKRTVAAPSVFIFPPSDEQLKSGTASVVCLLNNFYPREAKVQWKVDNALQSGNSQESVTEQDSKDSTYSLSSTLTLSKADYEKHKVYACEVTHQGLSSPVTKSFNRGEC
heavy: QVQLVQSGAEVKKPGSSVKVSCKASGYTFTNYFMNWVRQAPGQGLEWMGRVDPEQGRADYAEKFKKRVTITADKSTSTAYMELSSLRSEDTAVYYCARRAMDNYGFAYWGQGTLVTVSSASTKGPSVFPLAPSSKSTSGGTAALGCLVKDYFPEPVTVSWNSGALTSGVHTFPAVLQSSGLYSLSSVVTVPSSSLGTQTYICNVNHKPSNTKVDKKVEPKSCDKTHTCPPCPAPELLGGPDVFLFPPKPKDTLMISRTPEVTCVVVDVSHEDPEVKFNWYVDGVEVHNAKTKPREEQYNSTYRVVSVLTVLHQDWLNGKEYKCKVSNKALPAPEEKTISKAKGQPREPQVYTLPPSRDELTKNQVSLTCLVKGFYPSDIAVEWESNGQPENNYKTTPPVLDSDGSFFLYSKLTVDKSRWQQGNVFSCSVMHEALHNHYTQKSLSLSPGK
notes: Unmasked version of Antibody 2 with S239D and I332E in the Fc region; also called unmasked parental antibody; parental unmasked Antibody 2-6
B7: Antibody 2-14, activated by protease (antibody)
light: B6 light
heavy: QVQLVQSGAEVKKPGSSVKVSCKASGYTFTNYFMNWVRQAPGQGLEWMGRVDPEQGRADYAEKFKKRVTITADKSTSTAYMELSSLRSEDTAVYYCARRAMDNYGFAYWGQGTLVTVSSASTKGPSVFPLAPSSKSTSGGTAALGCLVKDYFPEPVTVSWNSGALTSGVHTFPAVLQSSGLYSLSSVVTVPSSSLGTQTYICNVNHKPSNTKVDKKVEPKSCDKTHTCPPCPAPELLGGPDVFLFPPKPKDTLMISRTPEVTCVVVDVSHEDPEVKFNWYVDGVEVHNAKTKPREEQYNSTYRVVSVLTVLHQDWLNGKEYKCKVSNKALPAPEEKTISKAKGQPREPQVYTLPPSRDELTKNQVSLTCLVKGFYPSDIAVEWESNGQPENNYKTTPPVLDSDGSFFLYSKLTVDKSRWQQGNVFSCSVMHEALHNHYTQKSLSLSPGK
notes: also called Antibody 2-14 with protease (+); not shown: remnant of the cleaved linker (part of VPLSLY and spacer SGG)
B8: Antibody 2-7 (Activated) (antibody)
light: B6 light
heavy: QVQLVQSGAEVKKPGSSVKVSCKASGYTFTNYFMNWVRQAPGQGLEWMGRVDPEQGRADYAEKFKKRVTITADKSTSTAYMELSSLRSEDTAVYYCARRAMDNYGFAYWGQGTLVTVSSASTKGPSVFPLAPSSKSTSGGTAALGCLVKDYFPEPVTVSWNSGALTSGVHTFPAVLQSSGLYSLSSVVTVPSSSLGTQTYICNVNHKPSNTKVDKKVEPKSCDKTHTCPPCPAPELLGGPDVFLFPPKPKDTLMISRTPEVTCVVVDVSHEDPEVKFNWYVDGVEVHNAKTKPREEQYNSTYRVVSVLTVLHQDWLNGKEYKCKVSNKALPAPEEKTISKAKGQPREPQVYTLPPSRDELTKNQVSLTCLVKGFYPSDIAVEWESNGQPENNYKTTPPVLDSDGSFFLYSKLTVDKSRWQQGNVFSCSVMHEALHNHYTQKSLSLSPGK
notes: also called Antibody 2-7 with protease; not shown: remnant of the cleaved linker (part of VPLSLY and spacer SGG)
B9: masking peptide CNLIVEGHC (peptide)
peptide: CNLIVEGHC
notes: Selected from the Ph.D.-C7C phage library; also called sterically occluded peptide

Residue numbers refer to the chain shown, from its start. In names and notes the source's numbering stands.

Assay [1] addresses T1, CTLA4 coated on an MSD plate (Homo sapiens (Human), UniProt P16410 36-161).
T1 construct: not shown: The carrier of the coated recombinant CTLA4; It is probably the Fc of a CTLA4-Fc, as in the other ELISAs
In words: binding to a CTLA4-coated MSD plate; antibody from plasma of MB49-bearing B-hCTLA4 mice 4 days after 10 mg/kg (28 % cleaved by FIG. 24D), IgG quantified by ELISA, 3-fold dilutions (Example 16). In general terms: In an ELISA, binding on a coated surface is turned into a signal by an enzyme label.

The target of assay [2] is CTLA4 on CTLA4 expressing Jurkat cells (UniProt P16410 36-223, limits assumed). In words: cell-based or functional assay.
Sequence of CTLA4 on CTLA4 expressing Jurkat cells (P16410 36-223 limits assumed): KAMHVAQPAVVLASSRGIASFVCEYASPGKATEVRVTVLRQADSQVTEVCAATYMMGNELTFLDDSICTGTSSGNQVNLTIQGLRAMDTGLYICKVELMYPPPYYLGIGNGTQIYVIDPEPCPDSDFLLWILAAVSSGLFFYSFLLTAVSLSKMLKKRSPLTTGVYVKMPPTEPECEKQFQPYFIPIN
The target in assay [3] is T2, human CTLA4-Fc (R&D Systems, #7268-CT) (human, UniProt P16410 36-162).
T2 construct: Bought; not shown: Fc part
T2 sequence (P16410 36-162 limits assumed): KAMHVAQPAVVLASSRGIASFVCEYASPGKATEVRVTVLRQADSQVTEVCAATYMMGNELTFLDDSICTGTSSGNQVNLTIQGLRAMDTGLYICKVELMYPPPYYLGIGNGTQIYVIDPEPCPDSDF
The assay can be described thus: ELISA, human CTLA4-Fc coated; protease -.

In assay [4] the target is T2, human CTLA4-Fc (R&D Systems, #7268-CT). The assay can be described thus: CTLA4 ELISA (luminescence) after culture of the masked antibody in RPMI as control.
Assay [5] shares this target. The assay can be described thus: CTLA4 ELISA (luminescence) after culture of the non-cleavable masked antibody in RPMI as control.
The target is the same in assay [6]. In words: ELISA, human CTLA4-Fc coated; protease +.
Assay [7] has the same target. In words: CTLA4 ELISA (luminescence) after culture of the non-cleavable masked antibody in colon tumor conditioned media.
Assay [8] has the same target. The assay can be described thus: CTLA4 ELISA (luminescence) after culture of Antibody 2-16 in colon tumor conditioned media; the text gives 100% of molecules cleaved.
For assay [9], the target named is T3, muCTLA4hsIgG protein (Abcam) (murine, UniProt P09793 36-161, limits assumed).
T3 construct: Bought; also called murine CTLA4; not shown: human IgG part (hsIgG)
The assay can be described thus: low density antigen binding ELISA, muCTLA4hsIgG coated; average of three experiments.

Assay [10] has as its target T4, murine CTLA4-Fc (R&D Systems) (murine, UniProt P09793 36-162).
T4 construct: Bought; also called muCTLA4-hsIgG (R&D Systems); not shown: human IgG Fc part (hsIgG)
In words: ELISA: plate coated with murine CTLA4-Fc (R&D Systems), detection anti-muKappa-HRP, chemiluminescence (Example 3A).

In assay [11] the target is T3, muCTLA4hsIgG protein (Abcam). In words: low density antigen binding ELISA, 3 ng muCTLA4hsIgG per well.
Assay [12] has as its target T4, murine CTLA4-Fc (R&D Systems). The assay can be described thus: ELISA, plate-coated murine CTLA4-Fc, anti-muKappa-HRP; ratio of EC50s.
Assay [13] has as its target T2, human CTLA4-Fc (R&D Systems, #7268-CT). The assay can be described thus: CTLA4 ELISA (luminescence) after culture of the antibody in RPMI as control.
Assay [14] shares this target. The assay can be described thus: ELISA, human CTLA4-Fc coated; protease -. This is another data set of the same source.
The target is the same in assay [15]. The assay can be described thus: CTLA4 ELISA (luminescence) after culture of the antibody in colon tumor conditioned media.
Assay [16] shares this target. In words: low density antigen binding ELISA, human CTLA4-Fc coated; control not exposed to protease.
In assay [17] the target is T1, CTLA4 coated on an MSD plate. In words: binding to a CTLA4-coated MSD plate; antibody from plasma of MB49-bearing B-hCTLA4 mice 4 days after 10 mg/kg, IgG quantified by ELISA, 3-fold dilutions (Example 16).
Assay [18] addresses T2, human CTLA4-Fc (R&D Systems, #7268-CT). In words: low density antigen binding ELISA, human CTLA4-Fc coated; no protease.
For assay [19] the target is unchanged. The assay can be described thus: CTLA4 ELISA (luminescence) after culture of Antibody 2-14 in colon tumor conditioned media; the text gives 100% of molecules cleaved.
Assay [20] has the same target. In words: low density antigen binding ELISA, human CTLA4-Fc coated; after protease digestion.
For assay [21] the target is unchanged. The assay can be described thus: ELISA, human CTLA4-Fc coated; protease +. This is another data set of the same source.
For assay [22], the target named is B4. In words: SPR, Biacore T200, 37 C; 9D9 coupled to CM5 chip, peptide as analyte; steady-state model. (In SPR one partner is held on a chip, and binding of the other changes the refractive index at the surface.)

T1 sequence (P16410 36-161 limits assumed): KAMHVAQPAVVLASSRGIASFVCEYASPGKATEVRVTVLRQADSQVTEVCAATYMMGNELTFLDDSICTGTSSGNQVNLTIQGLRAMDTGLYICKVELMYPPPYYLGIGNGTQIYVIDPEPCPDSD

B1: the 50% effective concentration (EC50 (read off the curve)) in [1] is approximately 0.02 µg/mL; in assay [4], approximately 10 nM. Also, the “EC50 of FcγRIIIa (ADCC) reporter activation, without protease” value (“EC50 of FcγRIIIa … without protease” below) in assay [2] stood at 33 ng/mL. In assay [3], this molecule showed a concentration giving a half-maximal response (EC50) of 39.4 nM.
B2: the “EC50 (read off the curve)” value in assay [5] was approximately 7 nM; in assay [7] it was approximately 8 nM. The results for the EC50 in [6] and in assay [3] were 17.3 nM and 24.3 nM, respectively. For the same molecule, in assay [2], the “EC50 of FcγRIIIa (ADCC) reporter activation, after exposure to protease” value (shortened to “EC50 of FcγRIIIa … to protease”) was 10 ng/mL. Besides, in assay [2], the “EC50 of FcγRIIIa … without protease” value worked out at 19 ng/mL.
For the molecule B3, the 50% effective concentration (EC50 (read off the curve)) in assay [8] is approximately 0.4 nM.
B4 showed a 50% effective concentration (EC50) in [9] of 0.31 nM. Also, the “EC50 (read off the curve)” value in [10] was approximately 0.2 nM.
For B5, in assay [9], the EC50 stood at 48.4 nM. For the same molecule, the “fold lower binding than parental anti-CTLA4 antibody” value in [11] was approximately 156 fold. Besides, the “fold lower binding than parental anti-CTLA4 antibody (9D9)” value in assay [12] came out at 90 fold.
Consider B6, for which the figures for the “EC50 (read off the curve)” value in [13], in assay [15] and in assay [17] were approximately 0.6 nM, approximately 0.4 nM and approximately 7 ng/mL, respectively. The EC50 in assay [6] was 0.39 nM; in assay [14], 0.69 nM; in [3], 0.39 nM; in [16], 0.69 nM; in [18] it was 0.69 nM. Besides, the “EC50 of FcγRIIIa … to protease” value in assay [2] was 0.0049 ng/mL. Also, the “EC50 of FcγRIIIa … without protease” value in assay [2] is 0.008 ng/mL.
On to B7, for which, in [6], the EC50 turned out to be 0.41 nM. Besides, in assay [2], the “EC50 of FcγRIIIa … to protease” value turned out to be 0.0028 ng/mL. Moreover, in assay [19], the “EC50 (read off the curve)” value was approximately 0.4 nM.
On to B8, for which the EC50 in assay [20] and in [21] was 0.58 nM in each case.
In the case of B9, in assay [22], the Kd worked out at 11 µM.

The term EC50 (read off the curve) denotes the concentration giving half of the maximal effect. A low value points to greater potency. By EC50 is commonly meant the concentration at which the effect is half-maximal. In general, Kd refers to the concentration at which binding is half-saturated.

Values taken from patent US20220073613A1 (XILIO DEVELOPMENT, published 2022).
